Data: patent US20130177919

Columns and labels:
[1] = target: T1, recombinant GST-Flag-CERT(1-138) wild type fusion protein from E. coli
T1 chain: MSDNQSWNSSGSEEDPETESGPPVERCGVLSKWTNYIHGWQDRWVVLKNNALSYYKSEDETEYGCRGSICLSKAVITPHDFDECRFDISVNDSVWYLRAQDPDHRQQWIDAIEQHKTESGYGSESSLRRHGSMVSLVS

[2] = target: T2, recombinant GST-Flag-CERT-S132A(1-138) fusion protein from E. coli
T2 chain: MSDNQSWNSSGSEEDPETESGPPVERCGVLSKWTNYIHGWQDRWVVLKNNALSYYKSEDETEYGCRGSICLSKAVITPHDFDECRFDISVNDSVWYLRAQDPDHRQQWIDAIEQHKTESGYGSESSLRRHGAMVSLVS

B1: purified PKD1 (protein)
chain: MSAPPVLRPPSPLLPVAAAAAAAAAALVPGSGPGPAPFLAPVAAPVGGISFHLQIGLSREPVLLLQDSSGDYSLAHVREMACSIVDQKFPECGFYGMYDKILLFRHDPTSENILQLVKAASDIQEGDLIEVVLSASATFEDFQIRPHALFVHSYRAPAFCDHCGEMLWGLVRQGLKCEGCGLNYHKRCAFKIPNNCSGVRRRRLSNVSLTGVSTIRTSSAELSTSAPDEPLLQKSPSESFIGREKRSNSQSYIGRPIHLDKILMSKVKVPHTFVIHSYTRPTVCQYCKKLLKGLFRQGLQCKDCRFNCHKRCAPKVPNNCLGEVTINGDLLSPGAESDVVMEEGSDDNDSERNSGLMDDMEEAMVQDAEMAMAECQNDSGEMQDPDPDHEDANRTISPSTSNNIPLMRVVQSVKHTKRKSSTVMKEGWMVHYTSKDTLRKRHYWRLDSKCITLFQNDTGSRYYKEIPLSEILSLEPVKTSALIPNGANPHCFEITTANVVYYVGENVVNPSSPSPNNSVLTSGVGADVARMWEIAIQHALMPVIPKGSSVGTGTNLHRDISVSISVSNCQIQENVDISTVYQIFPDEVLGSGQFGIVYGGKHRKTGRDVAIKIIDKLRFPTKQESQLRNEVAILQNLHHPGVVNLECMFETPERVFVVMEKLHGDMLEMILSSEKGRLPEHITKFLITQILVALRHLHFKNIVHCDLKPENVLLASADPFPQVKLCDFGFARIIGEKSFRRSVVGTPAYLAPEVLRNKGYNRSLDMWSVGVIIYVSLSGTFPFNEDEDIHDQIQNAAFMYPPNPWKEISHEAIDLINNLLQVKMRKRYSVDKTLSHPWLQDYQTWLDLRELECKIGERYITHESDDLRWEKYAGEQGLQYPTHLINPSASHSDTPETEETEMKALGERVSIL
[1]
  incorporation of radioactivity ([γ-32P]-ATP, in vitro kinase assay): incorporation of radioactivity is detected
[2]
  incorporation of radioactivity ([γ-32P]-ATP, in vitro kinase assay): This is significantly impaired in the case of the CERT-S132A fusion protein
